Reference: PMC9482650, “Quantitative fragmentomics allow affinity mapping of interactomes” (Nature Communications, 2022)

T1: SNTB2, Q13425
T1 sequence (Q13425 110-208, limits assumed, looked up): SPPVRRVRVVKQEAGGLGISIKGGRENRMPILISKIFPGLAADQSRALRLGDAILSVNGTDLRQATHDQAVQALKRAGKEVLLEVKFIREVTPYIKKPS

T2: SHROOM3, Q8TF72
T2 sequence (Q8TF72 20-120, limits assumed, looked up): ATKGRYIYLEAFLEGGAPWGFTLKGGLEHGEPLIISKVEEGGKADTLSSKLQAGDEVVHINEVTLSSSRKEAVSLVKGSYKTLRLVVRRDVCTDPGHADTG

T3: PTPN4, P29074
T3 sequence (P29074 512-599, limits assumed, looked up): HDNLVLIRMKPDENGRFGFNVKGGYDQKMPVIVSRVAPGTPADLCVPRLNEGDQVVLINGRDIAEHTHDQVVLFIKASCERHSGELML

T4: LNX2_4, Q8N448
T4 sequence (Q8N448 595-690, limits assumed, looked up): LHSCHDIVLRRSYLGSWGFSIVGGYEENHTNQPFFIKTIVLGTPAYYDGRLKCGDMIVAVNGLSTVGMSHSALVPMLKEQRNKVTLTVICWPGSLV

T5: DVL1, O14640
T5 sequence (O14640 246-333, limits assumed, looked up): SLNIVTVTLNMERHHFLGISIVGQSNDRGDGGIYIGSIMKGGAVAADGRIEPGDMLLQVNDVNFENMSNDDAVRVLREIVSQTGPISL

T6: SHANK2, Q9UPX8
T6 sequence (Q9UPX8 621-730, limits assumed, looked up): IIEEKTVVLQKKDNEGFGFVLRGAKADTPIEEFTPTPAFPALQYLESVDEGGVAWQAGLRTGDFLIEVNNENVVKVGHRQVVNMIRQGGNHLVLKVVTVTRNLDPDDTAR

T7: NHERF3_2, Q5T2W1
T7 sequence (Q5T2W1 129-225, limits assumed, looked up): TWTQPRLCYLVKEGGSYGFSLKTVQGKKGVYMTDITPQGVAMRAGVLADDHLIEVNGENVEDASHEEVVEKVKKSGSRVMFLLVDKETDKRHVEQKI

T8: MLLT4, P55196
T8 sequence (P55196 1002-1103, limits assumed, looked up): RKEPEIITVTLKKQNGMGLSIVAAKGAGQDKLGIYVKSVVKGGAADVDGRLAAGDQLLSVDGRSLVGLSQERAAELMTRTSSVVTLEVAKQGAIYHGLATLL

T9: PARD6B, Q9BYG5
T9 sequence (Q9BYG5 152-260, limits assumed, looked up): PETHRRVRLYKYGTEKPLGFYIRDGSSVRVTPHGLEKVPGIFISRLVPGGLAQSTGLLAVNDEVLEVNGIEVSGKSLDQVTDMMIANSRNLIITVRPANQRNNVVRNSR

T10: USH1C_3, Q9Y6N9
T10 sequence (Q9Y6N9 447-547, limits assumed, looked up): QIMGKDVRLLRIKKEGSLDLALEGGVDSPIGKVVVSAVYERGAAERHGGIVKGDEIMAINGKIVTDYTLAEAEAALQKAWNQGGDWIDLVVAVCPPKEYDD

T11: PDZD2_3, O15018
T11 sequence (O15018 581-682, limits assumed, looked up): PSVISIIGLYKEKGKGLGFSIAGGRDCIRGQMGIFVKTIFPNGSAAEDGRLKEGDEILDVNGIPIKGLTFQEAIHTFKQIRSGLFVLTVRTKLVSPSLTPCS

T12: GRIP1_1, Q9Y3R0
T12 sequence (Q9Y3R0 48-146, limits assumed, looked up): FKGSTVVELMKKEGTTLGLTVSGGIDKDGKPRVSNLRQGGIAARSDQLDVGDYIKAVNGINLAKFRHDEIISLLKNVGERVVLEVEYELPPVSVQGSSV

T13: PDZD8, Q8NEN9
T13 sequence (Q8NEN9 361-459, limits assumed, looked up): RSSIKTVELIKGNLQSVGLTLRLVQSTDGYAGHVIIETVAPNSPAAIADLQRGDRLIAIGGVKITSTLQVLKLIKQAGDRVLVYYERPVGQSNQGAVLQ

T14: GIPC1, O14908
T14 sequence (O14908 128-223, limits assumed, looked up): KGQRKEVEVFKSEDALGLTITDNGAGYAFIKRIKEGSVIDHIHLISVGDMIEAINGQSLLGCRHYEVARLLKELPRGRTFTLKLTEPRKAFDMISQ


How the values were obtained:
Experiment in all cases: holdup assay
Design in all cases: key: below the threshold = too weak to quantify, mostly under pKd 3.1 to 4
Details in all cases: plain residues with an end cap or a label only (N-terminal biotin on a linker: ttds)
SNTB2, Q13425 = biological target: T1, SNTB2, Q13425
SHROOM3, Q8TF72 = biological target: T2, SHROOM3, Q8TF72
PTPN4, P29074 = biological target: T3, PTPN4, P29074
LNX2_4, Q8N448 = biological target: T4, LNX2_4, Q8N448
DVL1, O14640 = biological target: T5, DVL1, O14640
MAGI1_5, Q96QZ7 = biological target: MAGI1_5, Q96QZ7
MAGI1_4, Q96QZ7 = biological target: MAGI1_4, Q96QZ7
PARD3B_2, Q8TEW8 = biological target: PARD3B_2, Q8TEW8
SHANK2, Q9UPX8 = biological target: T6, SHANK2, Q9UPX8
Inadl_7, Q8NI35 = biological target: Inadl_7, Q8NI35
NHERF3_2, Q5T2W1 = biological target: T7, NHERF3_2, Q5T2W1
MLLT4, P55196 = biological target: T8, MLLT4, P55196
PARD6B, Q9BYG5 = biological target: T9, PARD6B, Q9BYG5
USH1C_3, Q9Y6N9 = biological target: T10, USH1C_3, Q9Y6N9
DLG5_2, Q8TDM6 = biological target: DLG5_2, Q8TDM6
MAGI3_5, Q5TCQ9 = biological target: MAGI3_5, Q5TCQ9
PDZD2_3, O15018 = biological target: T11, PDZD2_3, O15018
IL16_2, Q14005 = biological target: IL16_2, Q14005
GRIP1_1, Q9Y3R0 = biological target: T12, GRIP1_1, Q9Y3R0
PDZD8, Q8NEN9 = biological target: T13, PDZD8, Q8NEN9
DLG2_1, Q15700 = biological target: DLG2_1, Q15700
GIPC1, O14908 = biological target: T14, GIPC1, O14908
RIMS2, Q9UQ26 = biological target: RIMS2, Q9UQ26
Chain of RIMS2, Q9UQ26 (Q9UQ26 637-758): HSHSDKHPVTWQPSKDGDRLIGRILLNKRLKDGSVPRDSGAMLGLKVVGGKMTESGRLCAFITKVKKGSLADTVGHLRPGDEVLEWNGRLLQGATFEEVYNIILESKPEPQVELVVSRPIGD

Chain of MAGI1_5, Q96QZ7 (Q96QZ7 986-1098): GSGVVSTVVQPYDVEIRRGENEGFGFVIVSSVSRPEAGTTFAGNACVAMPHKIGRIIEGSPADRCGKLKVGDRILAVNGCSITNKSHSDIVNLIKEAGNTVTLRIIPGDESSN
Chain of MAGI3_5, Q5TCQ9 (Q5TCQ9 847-941): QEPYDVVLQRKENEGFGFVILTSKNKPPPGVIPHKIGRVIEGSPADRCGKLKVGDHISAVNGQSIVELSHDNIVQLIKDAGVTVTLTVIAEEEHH
Chain of Inadl_7, Q8NI35 (Q8NI35 1219-1332): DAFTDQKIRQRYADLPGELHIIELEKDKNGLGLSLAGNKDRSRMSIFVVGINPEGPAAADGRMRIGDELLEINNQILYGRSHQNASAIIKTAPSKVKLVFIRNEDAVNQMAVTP
Chain of DLG5_2, Q8TDM6 (Q8TDM6 714-800): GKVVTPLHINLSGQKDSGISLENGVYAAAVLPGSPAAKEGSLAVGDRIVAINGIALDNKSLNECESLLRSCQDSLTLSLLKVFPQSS
Chain of MAGI1_4, Q96QZ7 (Q96QZ7 other isoform, or with tags, fused parts or gaps): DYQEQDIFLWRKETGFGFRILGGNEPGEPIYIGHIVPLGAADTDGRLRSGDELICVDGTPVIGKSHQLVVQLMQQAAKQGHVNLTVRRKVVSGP
Chain of IL16_2, Q14005 (Q14005 350-450): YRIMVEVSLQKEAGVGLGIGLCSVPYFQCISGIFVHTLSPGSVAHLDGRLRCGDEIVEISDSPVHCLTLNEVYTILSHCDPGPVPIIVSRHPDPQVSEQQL
Chain of PARD3B_2, Q8TEW8 (Q8TEW8 376-471): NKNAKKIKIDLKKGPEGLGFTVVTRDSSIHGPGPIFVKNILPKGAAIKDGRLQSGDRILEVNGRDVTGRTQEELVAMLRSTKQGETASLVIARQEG

Binder | pKd (SNTB2, Q13425) | pKd (SHROOM3, Q8TF72) | pKd (PTPN4, P29074) | pKd (LNX2_4, Q8N448) | pKd (DVL1, O14640) | pKd (MAGI1_5, Q96QZ7) | pKd (MAGI1_4, Q96QZ7) | pKd (PARD3B_2, Q8TEW8) | pKd (SHANK2, Q9UPX8) | pKd (Inadl_7, Q8NI35) | pKd (NHERF3_2, Q5T2W1) | pKd (MLLT4, P55196) | pKd (PARD6B, Q9BYG5) | pKd (USH1C_3, Q9Y6N9) | pKd (DLG5_2, Q8TDM6) | pKd (MAGI3_5, Q5TCQ9) | pKd (PDZD2_3, O15018) | pKd (IL16_2, Q14005) | pKd (GRIP1_1, Q9Y3R0) | pKd (PDZD8, Q8NEN9) | further results
HRTCYLVTQL [ASIC3, Q9UHC3] | below the threshold | below the threshold | below the threshold | below the threshold | below the threshold | 5.13 | below the threshold | below the threshold | 4.93 | 4.05 | 4.33 | below the threshold | below the threshold | below the threshold | below the threshold | 4.64 | below the threshold | below the threshold | 4.31 | below the threshold | pKd (DLG2_1, Q15700): below the threshold; pKd (GIPC1, O14908): below the threshold; pKd (RIMS2, Q9UQ26): below the threshold
RTRQRNETQV [HPV51-E6, P26554] | below the threshold | below the threshold | below the threshold | below the threshold | 4.86 | below the threshold | below the threshold | 4.39 | below the threshold | below the threshold | below the threshold | below the threshold | below the threshold | 4.16 | 4.63 | below the threshold | 4.22 | below the threshold | below the threshold | below the threshold | pKd (DLG2_1, Q15700): 5.06; pKd (GIPC1, O14908): 5.1; pKd (RIMS2, Q9UQ26): below the threshold
